From patent US7192733B2, “Methods and means for modulating PGE synthase activity” (Karolinska Innovations AB, priority 1998, dated 2007)

Columns and labels:
[1] = test system: 17.5 kDa protein from sheep seminal vesicles (PGE synthase activity); settings: read-out: Km for PGH2; cited from earlier work
[2] = test system: 180 kDa protein from sheep seminal vesicles (PGE synthase activity); settings: larger (180 kDa) protein; read-out: Km for PGH2; cited from earlier work
human PGE synthase = molecular target: T1, human PGE synthase (Homo sapiens, UniProt O14684); test: PGE synthase enzyme assay (inhibition of PGE2 formation from PGH2); type: biochemical; settings: 1 mM for 5 min prior to incubation; membrane fraction from bacteria expressing PGE synthase
T1 construct: made in house; host or cells: E. coli BL21 (DE3) pLysSL, vector pSP19T7LT; membrane fraction
T1 sequence (O14684 1-152): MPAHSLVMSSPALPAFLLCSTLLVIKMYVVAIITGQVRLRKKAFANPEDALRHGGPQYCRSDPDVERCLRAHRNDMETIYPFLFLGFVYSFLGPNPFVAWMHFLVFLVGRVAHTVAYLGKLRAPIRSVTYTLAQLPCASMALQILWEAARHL
Protocol: (§1) The protein sample was diluted in potassium inorganic phosphate buffer (0.1 M, pH=7.4) containing 2.5 mM reduced glutathione. The reaction (total volume=100 μl) was started by the addition of 10 μM PGH2 with or without 0.1 μCi 3H PGH2 and terminated with 60 μl acetonitrile/HCl, lowering the pH to 3.2. In order to determine the formation of either PGF2α, PGE2 or PGD2, an aliquot (60 μl) was analyzed by reverse-phase-HPLC combined with UV detection (195 nm) and/or radioactivity detection using an online β-RAM detector (Inus System, Inc.). The reverse-phase HPLC column was Nova-Pak C18 (3.9×150 mm, 4 μm particle size) obtained from Waters. The mobile phase was water, acetonitrile and trifluoroacetic acid (70:30:0.007, by vol) with a flow rate of 1 ml/min.
(§2) For analysis of 12-HHT, a mobile phase of methanol, water and acetic acid (70:30:0,01, by vol) was used and UV detection at 236 nm. The amounts of produced PGE2 and 12-HHT were quantified by integration of the areas under the eluted peaks at 195 and 236 nm, respectively.
(§3) The membrane fraction (0.02 mg total protein/ml) isolated from bacteria expressing PGE synthase was incubated for 2 min in the presence of PGH2 (10 μM including 1 μCi 3H PGH2) and reduced glutathione (2.5 mM).

[3] = test system: PGE synthase expression in A549 cells; test: Induction of PGE synthase protein in A549 cells, Western blot; type: cell-based, human; settings: 1 ng/ml, 24 h
Protocol: Samples were diluted and boiled for two min in SDS-containing sample buffer (Laemmli, U. K. (1970) Nature 227, 680–5). Proteins were separated through 14% polyacrylamide gels (Novex) and electroblotted (Towbin, H., et al.(1979) PNAS USA 76, 4350–4) onto PVDF (Pall) membranes. Transfer efficiency was visualized using pre-stained standards (Novex). Membranes were then soaked for 1 h at 25° C. in Tris-buffered saline (100 mM Tris-HCl, pH=7.5, 150 mM NaCl) containing 0.1% (v/v) Tween and 5% (w/v) non-fat dried milk. The membrane was subsequently washed twice in 0.1% T-TBS followed by 1 h incubation at 25° C. with the indicated antiserum (1:2000 dilution) in 0.05% (v/v) T-TBS and 2% (w/v) non-fat dried milk. […]
In order to investigate whether or not PGE synthase may also be regulated by this cytokine, A549 cells were cultured for 24 h in the presence of 1 ng/ml IL-1β. Normal cells as well as cells treated with IL-1β were subsequently analyzed for PGE synthase expression by SDS-PAGE followed by Western blotting.
Total protein corresponding to 0.2×10^6 cells grown for 24 h in the presence (1 ng/ml) or absence of IL-1β was fractionated by SDS-PAGE and transferred to PVDF membrane. […] Also analyzed was the commercial available, partly purified, PGE synthase from sheep seminal vesicles (6 μg) as well as the membrane fraction from bacteria expressing human PGE synthase (5 μg).

PGH2 = test: PGE synthase activity of fractions from cells expressing recombinant protein (PGH2 to PGE2, RP-HPLC); type: biochemical; settings: for PGE synthase activity: membrane fraction or microsomes of cells expressing the control protein
Protocol: as §1, §2, §3
In this experiment the various dilutions of the membrane fraction obtained from bacteria expressing PGE synthase were incubated in the presence of PGH2 (10 μM) and GSH (2.5 mM) for 2 min. The PGE2 formation was analyzed and quantified by RP-HPLC and UV detection at 195 nm as described in Materials and Methods above.
The membrane fraction obtained from bacteria expressing PGE synthase (0.02 mg/ml) was incubated with PGH2 for the indicated times in the presence (filled circles) or absence (open circles) of glutathione. Filled triangles represent non-enzymatic (buffer only) PGE2 formation after incubation with PGH2. The product formation was analyzed by RP-HPLC and PGE2 was detected and quantified using UV absorbance at 195 nm.

Molecule: CCCCC[C@H](O)/C=C/[C@@H]1[C@@H](C/C=C\CCCC(=O)O)[C@@H]2C[C@H]1OO2 (relative stereo) [PGH2, 15(S)-hydroxy-9α, 11α-peroxidoprosta-5-cis-13-trans-dienoic acid]
- Km [1]: 40 µM
- Km [2]: 150 µM

Molecule: CCN1C(=O)C=CC1=O [N-ethylmaleimide]
- enzyme activity after treatment of the membrane fraction (human PGE synthase): abolished

Molecule: IL-1β: proinflammatory cytokine interleukin-1β
- PGE synthase protein expression [3]: induced

Molecule: MGST2: microsomal glutathione S-transferase 2 expressed in Sf9 cells, microsomes [reference compound]
- PGE synthase activity (PGH2): no PGE synthase activity

B1: PGE synthase: human PGE synthase (SEQ ID NO: 2) expressed in E. coli, tested as bacterial membrane fraction (protein, listed as Homo sapiens)
chain: T1 sequence (O14684 1-152)
- glutathione dependent PGE synthase activity (PGH2; bacterial membrane fraction, PGH2, reduced glutathione): 0.25 µmol/min/mg
- deduced specific activity (PGH2; estimating that 1% of the bacterial membrane protein is MGST1-L1): 25 µmol/min/mg
- specific activity under linear conditions (subtracting background formation) (PGH2; membrane fraction 0.02 mg/ml, PGH2 10 μM, GSH 2.5 mM): 250 nmol/min/mg

B2: ratMGST1: rat microsomal glutathione S-transferase 1 expressed in bacteria, control membrane fraction (protein, UniProt P08011 2-155, looked up)
Microsomal glutathione …: ADLKQLMDNEVLMAFTSYATIILAKMMFLSSATAFQRLTNKVFANPEDCAGFGKGENAKKFLRTDEKVERVRRAHLNDLENIVPFLGIGLLYSLSGPDLSTALIHFRIFVGARIYHTIAYLTPLPQPNRGLAFFVGYGVTLSMAYRLLRSRLYL
- PGE synthase activity (PGH2): no PGE synthase activity
